Measured values published in US20020115631A1 (IDUN PHARMACEUTICALS, published 2002).

What was measured:
[1] = biological target: T1, GST-Bax fusion protein (pGEX 4T1, N-terminal glutathione-S-transferase tag) (human, UniProt Q07812 1-171); assay: ELISA, 6HBad coated on the plate, GST fusion in solution, anti-GST detection
T1 construct: no residue range is printed; also called pGEX Bax

[2] = biological target: T2, GST-Bcl-xL fusion protein (pGEX 4T1, N-terminal glutathione-S-transferase tag) (human, UniProt Q07817 1-212); assay: as above
T2 construct: no residue range is printed; also called pGEX-Bcl-XL

[3] = biological target: T3, full length human Bad expressed as a fusion protein with the DNA-binding protein LexA (bait, vector pEGE202) (human, UniProt P0A7C2 1-202 (Escherichia coli entry)); assay: yeast two-hybrid, beta-galactosidase reporter (LexA-Bad bait, B42 prey)
T3 construct: Expressed in yeast EGY191 for the two-hybrid assay; also called Bad-bait; LexA-Bad
T3 sequence: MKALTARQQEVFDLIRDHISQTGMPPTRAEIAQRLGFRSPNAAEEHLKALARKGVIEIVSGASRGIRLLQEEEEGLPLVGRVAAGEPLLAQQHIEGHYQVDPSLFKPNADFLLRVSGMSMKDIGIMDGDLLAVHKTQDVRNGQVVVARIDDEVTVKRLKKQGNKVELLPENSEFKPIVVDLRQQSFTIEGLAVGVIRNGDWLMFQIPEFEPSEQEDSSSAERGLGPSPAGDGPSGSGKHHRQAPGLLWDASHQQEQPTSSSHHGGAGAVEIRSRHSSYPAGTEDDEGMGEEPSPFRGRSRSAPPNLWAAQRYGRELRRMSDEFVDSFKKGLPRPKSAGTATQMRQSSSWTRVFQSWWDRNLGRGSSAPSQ
Text: Briefly, the full length human Bad sequence was subcloned into the yeast 2-hybrid vector pEGE202, or “bait-vector” to express Bad as a fusion protein wish the DNA-binding protein LexA (Ruden et al., Nature (1991) 350:426-430). Human Bcl-2, Bcl-X, Bax, Bak and Bad were similarly cloned into the yeast 2-hybrid vector pJG4-5, or “prey-vector” to expressed these Bcl-2 family members as fusion proteins with the transcriptional activator B42 (Gyuris et al., Cell (1993) 75:791-803). Briefly, the full length human Bad sequence was amplified by PCR and subcloned into the bait-vector. For the PCR reaction we used the following primers: 5′ATCAGTGAATTCACTATGTTCCAGATCCCA GAC3′ (SEQ ID NO: 4) and 5′ ATCGATCTCGAGTCACTGGGAGGGGGCGGA GCT3′ (SEQ ID NO: 5). The resultant PCR fragment was digested with EcoRI and Xho I and then subcloned into the bait vector. The human Bad sequence was also PCR amplified and subcloned into the prey-vector using the same primers and subcloning strategy as described above. […]
To determine if human Bad binds to any of the above Bcl-2 family members, the Bad-bait plasmid was cotransformed with every prey plasmid and the reporter plasmid p18-34 into the yeast strain EGY191. […] The reaction was stopped with 0.4 M NaOH and the plate was read at an OD 420 nm.

T1 sequence (Q07812 1-171): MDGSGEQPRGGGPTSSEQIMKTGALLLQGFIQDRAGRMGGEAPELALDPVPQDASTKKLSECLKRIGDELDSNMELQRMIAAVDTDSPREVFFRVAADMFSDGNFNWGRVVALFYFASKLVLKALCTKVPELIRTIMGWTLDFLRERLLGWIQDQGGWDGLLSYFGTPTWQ
T2 sequence (Q07817 1-212): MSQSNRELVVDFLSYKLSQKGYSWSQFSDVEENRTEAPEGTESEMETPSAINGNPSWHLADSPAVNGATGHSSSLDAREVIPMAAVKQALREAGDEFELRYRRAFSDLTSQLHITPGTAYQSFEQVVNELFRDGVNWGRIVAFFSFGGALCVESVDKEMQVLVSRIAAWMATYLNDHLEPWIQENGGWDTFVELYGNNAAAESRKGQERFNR

B1: 6HBad fusion protein (full length human Bad with N-terminal six residue Histidine tag, construct pET-15 6H Bad) (other, not shown: small tags and cut ends)
chain: MFQIPEFEPSEQEDSSSAERGLGPSPAGDGPSGSGKHHRQAPGLLWDASHQQEQPTSSSHHGGAGAVEIRSRHSSYPAGTEDDEGMGEEPSPFRGRSRSAPPNLWAAQRYGRELRRMSDEFVDSFKKGLPRPKSAGTATQMRQSSSWTRVFQSWWDRNLGRGSSAPSQ
notes: Made in E. coli BL21 plysS, purified on nickel, coated on ELISA plates at 4 ug/ml; also called human 6HBad
Q: Does B1 bind [1]?
A: no binding

Q: Does B1 bind [2]?
A: binds

B2: human Bak expressed as a fusion protein with the transcriptional activator B42 (prey, vector pJG4-5) (other, UniProt Q16611 1-187, looked up, not shown: large carriers)
chain: MASGQGPGPPRQECGEPALPSASEEQVAQDTEEVFRSYVFYRHQQEQEAEGVAAPADPEMVTLPLQPSSTMGQVGRQLAIIGDDINRRYDSEFQTMLQHLQPTAENAYEYFTKIATSLFESGINWGRVVALLGFGYRLALHVYQHGLTGFLGQVTRFVVDFMLHHCIARWIAQRGGWVAALNLGNGP
notes: no residue range is printed; also called B42-Bak
Q: Does B2 bind [3]?
A: no binding

B3: human Bad expressed as a fusion protein with the transcriptional activator B42 (prey, vector pJG4-5) (other, not shown: large carriers)
chain: MFQIPEFEPSEQEDSSSAERGLGPSPAGDGPSGSGKHHRQAPGLLWDASHQQEQPTSSSHHGGAGAVEIRSRHSSYPAGTEDDEGMGEEPSPFRGRSRSAPPNLWAAQRYGRELRRMSDEFVDSFKKGLPRPKSAGTATQMRQSSSWTRVFQSWWDRNLGRGSSAPSQ
notes: also called itself; B42-Bad
Q: Does B3 bind [3]?
A: no binding
